Measured values from US20230277625A1 (SIMCHA IL 18, published 2023).
Where a chain is given by its changes, count along the chain named.

Experiments:
[1] = biological target: T1, Human IL-18BP (amino acids 31-194), biotinylated (human, UniProt O95998 31-194, biotin on the AviTag (BirA ligase) where used biotinylated); experiment: on-yeast binding isotherm (flow cytometry); members per FIG. 5A legend
T1 construct: Soluble decoy receptor; also called hIL-18BP; recombinant IL-18BP
T1 sequence: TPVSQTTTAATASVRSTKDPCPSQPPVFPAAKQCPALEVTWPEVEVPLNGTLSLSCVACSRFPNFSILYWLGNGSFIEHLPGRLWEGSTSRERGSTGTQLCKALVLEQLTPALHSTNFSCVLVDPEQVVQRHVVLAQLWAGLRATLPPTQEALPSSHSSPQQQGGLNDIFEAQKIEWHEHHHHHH
Description: (§1) Individual colonies of IL-18 yeast were grown overnight at 30° C. in SDCAA liquid media and induced in SGCAA liquid media for 1 day at 20° C. IL-18 display levels on yeast were verified by flow cytometry using an anti-cMyc tag antibody (anti-myc-PE; Cell Signaling Technologies). Receptor staining with biotinylated IL-18Rα (with or without IL-18R β) or biotinylated IL-18BP was performed in PBS supplemented with 0.5% BSA and 2 mM EDTA (PBE) on ice. All analysis was performed on a Sony SA3800 flow cytometer.
(§2) To additionally characterize the receptor binding activities of the DR-IL-18 variants, the cytokines were expressed recombinantly and surface plasmon resonance for IL-18Rα and IL-18BP was performed (see FIG. 5B for representative traces).

[2] = biological target: T1, Human IL-18BP (amino acids 31-194), …; experiment: SPR; KD ratio relative to WT IL-18
Description: (§3) Experiments were conducted using a Biacore T100 and carried out at 25° C. Biotinylated IL-18Rα or IL-18BP were immobilized onto a Biacore biotin capture chip (Series S CAP sensor chip, GE Healthcare) to yield an Rmax of ˜50 RU (IL-18Rα) or ˜10 RU (IL-18BP). Measurements were made with serial dilutions of the IL-18 variants in HEPES buffered Saline-P+buffer (10 mM HEPES pH 7.4, 150 mM NaCl, 0.005% surfactant P20). The surface was regenerated by three 60-sec injections of regeneration buffer (3/4 (v/v) 8M guanidine hydrochloride with 1/4 (v/v) 1M sodium hydroxide). Experiments were performed in multiple channels simultaneously for increased observations. All data were analyzed with the Biacore T100 evaluation software version 2.0 with a 1:1 Langmuir binding model.
as §2

[3] = biological target: T1, Human IL-18BP (amino acids 31-194), …; experiment: on-yeast binding isotherms; KD for IL-18BP over KD for IL-18Rα
[4] = biological target: T1, Human IL-18BP (amino acids 31-194), …; experiment: on-yeast binding isotherms; KD ratio relative to WT IL-18
[5] = biological target: T2, Human IL-18Rα ectodomain (amino acids 19-329), biotinylated (human, UniProt Q13478 19-329, biotin on the AviTag (BirA ligase)); experiment: SPR; average of 2 studies
T2 construct: range 19-329; Secreted from insect cells (gp67 signal peptide removed); also called hIL-18Rα; hIL18Rα
T2 sequence: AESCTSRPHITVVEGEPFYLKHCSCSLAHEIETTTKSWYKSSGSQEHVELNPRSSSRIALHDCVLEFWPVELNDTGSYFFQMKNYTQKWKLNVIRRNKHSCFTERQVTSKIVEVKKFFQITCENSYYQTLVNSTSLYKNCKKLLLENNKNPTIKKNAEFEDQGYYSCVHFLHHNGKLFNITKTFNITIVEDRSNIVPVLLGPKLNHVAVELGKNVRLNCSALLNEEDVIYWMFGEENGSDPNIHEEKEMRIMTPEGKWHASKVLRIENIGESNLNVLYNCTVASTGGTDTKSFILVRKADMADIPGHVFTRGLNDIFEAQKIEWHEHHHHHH

[6] = biological target: T1, Human IL-18BP (amino acids 31-194), …; experiment: SPR; average of 2 studies
[7] = biological target: T1, Human IL-18BP (amino acids 31-194), …; experiment: SPR; KD(IL-18BP)/KD(IL-18Rα) normalized to WT IL-18
[8] = biological target: T2, Human IL-18Rα ectodomain (amino acids …); experiment: SPR (Biacore T100), receptor captured via biotin, IL-18 as analyte
Description: as §3, §2

[9] = biological target: T1, Human IL-18BP (amino acids 31-194), …; experiment: SPR (Biacore T100), IL-18BP captured via biotin, IL-18 as analyte
Description: as §3, §2

[10] = biological target: T1, Human IL-18BP (amino acids 31-194), …; experiment: SPR; KD for IL-18BP over KD for IL-18Rα
Description: as §3, §2

[11] = biological target: T1, Human IL-18BP (amino acids 31-194), …; experiment: on-yeast binding isotherm (flow cytometry)
[12] = biological target: T1, Human IL-18BP (amino acids 31-194), …; experiment: on-yeast binding isotherms; KD ratio relative to WT IL-18; yeast-displayed variant; ratio normalized to WT, from the 20 µM placeholder
[13] = biological target: T1, Human IL-18BP (amino acids 31-194), …; experiment: on-yeast binding isotherms; 20 µM used for NBD; yeast-displayed variant; ratio computed with 20 µM put in for NBD
[14] = biological target: T1, Human IL-18BP (amino acids 31-194), …; experiment: on-yeast binding isotherms; 20 µM used for NBD
[15] = biological target: T3, Mouse IL-18Rα ectodomain (amino acids 19-329), biotinylated (mouse, UniProt Q61098 19-329, biotin on the AviTag (BirA ligase)); experiment: on-yeast binding isotherm (flow cytometry)
T3 construct: range 19-329; Secreted from Expi293 cells (H7 signal peptide removed); also called mIL-18Rα; mIL18Ra
T3 sequence: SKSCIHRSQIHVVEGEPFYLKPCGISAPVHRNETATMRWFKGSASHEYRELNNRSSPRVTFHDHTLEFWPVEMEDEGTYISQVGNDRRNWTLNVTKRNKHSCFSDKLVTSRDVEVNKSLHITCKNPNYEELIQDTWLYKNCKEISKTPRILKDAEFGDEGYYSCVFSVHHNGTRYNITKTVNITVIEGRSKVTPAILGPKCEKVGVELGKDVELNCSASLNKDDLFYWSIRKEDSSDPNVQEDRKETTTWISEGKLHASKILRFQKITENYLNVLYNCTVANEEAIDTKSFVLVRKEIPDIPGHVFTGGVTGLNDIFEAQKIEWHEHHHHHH
Description: as §1

[16] = biological target: T4, Mouse IL-18BP (amino acids 31-194), biotinylated (mouse, UniProt Q9Z0M9 29-193, biotin on the AviTag (BirA ligase)); experiment: yeast binding isotherms and SPR; members per FIG. 11A legend
T4 construct: also called mIL-18BP
T4 sequence: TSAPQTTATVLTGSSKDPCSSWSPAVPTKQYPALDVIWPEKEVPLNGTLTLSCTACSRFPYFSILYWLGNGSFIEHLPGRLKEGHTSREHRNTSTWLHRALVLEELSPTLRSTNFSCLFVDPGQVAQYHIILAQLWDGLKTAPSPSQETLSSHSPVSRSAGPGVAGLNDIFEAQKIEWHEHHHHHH
Description: as §1, §3

[17] = biological target: T4, Mouse IL-18BP (amino acids 31-194), …; experiment: SPR; KD ratio relative to WT IL-18; SPR; ratio normalized to WT
Description: as §3

[18] = biological target: T4, Mouse IL-18BP (amino acids 31-194), …; experiment: on-yeast binding isotherms; KD ratio relative to WT IL-18; yeast-displayed variant; ratio normalized to WT, from the 10 µM placeholder
Description: as §1

[19] = biological target: T4, Mouse IL-18BP (amino acids 31-194), …; experiment: SPR; KD for IL-18BP over KD for IL-18Rα; SPR; ratio of two measured KD
Description: as §3

[20] = biological target: T4, Mouse IL-18BP (amino acids 31-194), …; experiment: SPR (Biacore T100), IL-18BP captured via biotin, IL-18 as analyte; SPR, soluble variant
Description: as §3

[21] = biological target: T4, Mouse IL-18BP (amino acids 31-194), …; experiment: on-yeast binding isotherms; 10 µM used for NBD; yeast-displayed variant; ratio computed with 10 µM put in for NBD
Description: as §1

[22] = biological target: T3, Mouse IL-18Rα ectodomain (amino acids …); experiment: SPR (Biacore T100), receptor captured via biotin, IL-18 as analyte
Description: as §3

B1: SEQ ID NO: 36 (human DR-IL-18 variant hCS3) (ligand)
chain: RFGKLESKLSVIRNLNDQVLFIDQGNRPLFEDMTDSDCRDNAPRTIFIISTYKDSQPRGKAVTISVKCEKISTLSCENKIISFKEMNPPDNIKDTKSDIIFFQRDVPGHKHKMQFESSSYEGYFLACEKERDLFKLILKKEDELGDRSIMFTVQNED
notes: Engineered variant
EC50 [1]: > 1000 nM
Dissociation Constant Ratio normalized to WT IL-18 [2]: 3500
KD ratio IL-18BP/IL-18Rα [3]: 103
Dissociation Constant Ratio normalized to WT IL-18 [4]: 348
Kd [5]: 9.1 nM
Kd [6]: 19.3 nM
IL-18 BP:Rα Dissociation Constant Ratio [7]: 4350
Kd [8]: 8.18 nM
Kd [9]: 18.6 nM
KD ratio IL-18BP/IL-18Rα [10]: 2.27
Kd [11]: 11600 nM

B2: SEQ ID NO: 39 (human DR-IL-18 variant hA8) (ligand)
chain: B1 chain with R1Y, K8R, T51K, S55K, G59A, K60Q, V153I
notes: Engineered variant
Dissociation Constant Ratio normalized to WT IL-18 [12]: > 1170
KD ratio IL-18BP/IL-18Rα [13]: > 347

B3: SEQ ID NO: 52 (human DR-IL-18 variant hH3) (ligand)
chain: B1 chain with K8R
notes: Engineered variant
Dissociation Constant Ratio normalized to WT IL-18 [4]: > 809
KD ratio IL-18BP/IL-18Rα [14]: > 239

B4: SEQ ID NO: 57 (human DR-IL-18 variant hB9) (ligand)
chain: B1 chain with L5H, K53R, Q103E, D105N, H111Y
notes: Engineered variant
Dissociation Constant Ratio normalized to WT IL-18 [4]: > 534
KD ratio IL-18BP/IL-18Rα [14]: > 157

B5: SEQ ID NO: 62 (murine DR-IL-18 variant mC1) (ligand)
chain: NFGRLHCTTAVIRNINDQVLFVDKRQPVFEDMTDIDQSASEPQTRLIIYAYVDRRLRGKAVTLSVKDSKMSTLSCKNKIISFEEMDPPENIDDIQSDLIFFQKKVPGHNKMEFESSLYEGHFLACQKEDDAFKLILKKKDENGDKSVMFTLTNLHQS
notes: Engineered variant
Kd [15]: 43 nM
Kd [16]: > 1000 nM
Dissociation Constant Ratio normalized to WT IL-18 [17]: 1.44e+07
Dissociation Constant Ratio normalized to WT IL-18 [18]: > 1230
KD ratio IL-18BP/IL-18Rα [19]: 26300
Kd [20]: 28700 nM
KD ratio IL-18BP/IL-18Rα [21]: > 233
Kd [22]: 1.09 nM
